Several values for one entry are separate records, joined by “and”; a condition that tells them apart may be missing. Identical values can stand only once.
B1: TIP-TIP-IgG fusion protein (two copies of the TIP-1 PDZ domain fused to the hIgG constant region) (Fc fusion)
chain: QRVEIHKLRQGENLILGFSIGGGIDQDPSQNPFSEDKTDKGIYVTRVSEGGPAEIAGLQIGDKIMQVNGWDMTMVTHDQARKRLTKRSEEVVRLLVTRQSLQKQRVEIHKLRQGENLILGFSIGGGIDQDPSQNPFSEDKTDKGIYVTRVSEGGPAEIAGLQIGDKIMQVNGWDMTMVTHDQARKRLTKRSEEVVRLLVTRQSLQK
notes: domain: PDZ domain; not shown: hIgG constant region of the CD5gamma or PEAK10 vector

The molecules below were run against HPV16 E6 C-terminal PDZ ligand (PL) peptide, biotinylated (human papillomavirus type 16) (UniProt P03126) (assay: Matrix/G assay ELISA; E6 peptide titrated on GST-PDZ).
For “GST-Magi3 PDZ domain 1 (from UniProt Q5TCQ9 18-106)”, the EC50 was 310 nM.
With GST-SAST2 PDZ domain 1 the EC50 was 1200 nM.

These molecules were tested against HPV E6 #16 PDZ ligand peptide (C-terminal peptide of the E6 protein of HPV 16) (HPV 16) (UniProt P03126) (assay: G assay ELISA, immobilised GST-PDZ, biotin peptide 10 uM).
For GST-INADL PDZ domain 3, the Ave OD was 0.485 A450 nm and the OD S/N (ratio to GST-only well) was 1.86.
GST-KIAA1526 #126.1 PDZ domain 2 gave an Ave OD of 0.463 A450 nm and an OD S/N (ratio to GST-only well) of 1.87.
GST-MAGI 1 PDZ domain 5 showed an Ave OD of 0.541 A450 nm and an OD S/N (ratio to GST-only well) of 3.12.
With GST-NSP #268.2 PDZ domain 1 the Ave OD was 0.724 A450 nm and the OD S/N (ratio to GST-only well) was 2.58.
GST-NeDLG PDZ domain 1 was tested, and the Ave OD was 0.516 A450 nm and the OD S/N (ratio to GST-only well) was 1.98.
For GST-PDZ-73 PDZ domain 2, the Ave OD was 0.561 A450 nm and the OD S/N (ratio to GST-only well) was 1.95.
GST-PDZK1 PDZ domain 3 was tested, and the Ave OD was 0.5 A450 nm and the OD S/N (ratio to GST-only well) was 1.92.
In the case of GST-TAX IP 2 PDZ domain 1, the Ave OD is reported as 0.508 A450 nm and 0.478 A450 nm and the OD S/N (ratio to GST-only well) is reported as 2.37 and 2.48.

Each molecule was assayed against HPV16 E6 C-terminal PDZ ligand (PL) peptide, biotinylated (human papillomavirus type 16) (UniProt P03126) (assay: G assay ELISA; immobilised GST-PDZ, biotin-peptide 10 uM).
For GST-AF6 PDZ domain 1, the Ave OD was 0.444 A450 nm and the OD S/N (ratio vs GST only) was 1.8.
In the case of GST-DLG-6 PDZ domain 1, clone #333.1, the Ave OD is reported as 0.349 A450 nm and the OD S/N (ratio vs GST only) is reported as 2.04.
In the case of GST-Densin 180 PDZ domain 1, the Ave OD is reported as 0.42 A450 nm and 0.35 A450 nm and the OD S/N (ratio vs GST only) is reported as 1.96 and 1.82.
In the case of “GST-EZRIN Binding Protein 50 PDZ domain 1, clone #341.1”, the Ave OD is reported as 0.43 A450 nm and the OD S/N (ratio vs GST only) is reported as 1.65.
GST-MAGI1 PDZ domain 5 showed an Ave OD of 0.432 A450 nm and an OD S/N (ratio vs GST only) of 1.77.
With “GST-Magi2 PDZ domain 3 (from UniProt Q86UL8 774-865)” the Ave OD was 0.416 A450 nm and 0.359 A450 nm and the OD S/N (ratio vs GST only) was 1.98 and 1.65.
With GST-NSP PDZ domain 1, clone #42.5 the Ave OD was 0.416 A450 nm and the OD S/N (ratio vs GST only) was 1.95.
Work on GST-PAR3 PDZ domain 3, clone #278.1 yielded an Ave OD of 0.352 A450 nm and an OD S/N (ratio vs GST only) of 1.8.

What follows are molecules tested against HPV16 E6 C-terminal PDZ ligand (PL) peptide, biotinylated (human papillomavirus type 16) (UniProt P03126) (assay: G assay ELISA; E6 PL peptide titrated on constant GST-PDZ).
“GST-Magi3 PDZ domain 1 (from UniProt Q5TCQ9 18-106)” gave an EC50 of 310 nM.
GST-SAST2 PDZ domain 1 was tested, and the EC50 was 1200 nM.

These molecules were tested against T1, GST-HPV11E6 fusion protein (full length E6 of HPV11) (human papillomavirus 11, UniProt P04019 1-150) (assay: modified ELISA: GST-E6 coated at 5 ug/ml, TIP-TIP-IgG supernatant, anti-hIgG-HRP).
T1 construct: domain: full length protein
B1: no binding.
